Data taken from patent publication US20210340263A1 (WISTAR INSTITUTE, published 2021).

Target: T1, murine FSHR (murine, UniProt P35378 18-692)
T1 construct: whole, on cells; also called mouse FSHR
T1 sequence (looked up): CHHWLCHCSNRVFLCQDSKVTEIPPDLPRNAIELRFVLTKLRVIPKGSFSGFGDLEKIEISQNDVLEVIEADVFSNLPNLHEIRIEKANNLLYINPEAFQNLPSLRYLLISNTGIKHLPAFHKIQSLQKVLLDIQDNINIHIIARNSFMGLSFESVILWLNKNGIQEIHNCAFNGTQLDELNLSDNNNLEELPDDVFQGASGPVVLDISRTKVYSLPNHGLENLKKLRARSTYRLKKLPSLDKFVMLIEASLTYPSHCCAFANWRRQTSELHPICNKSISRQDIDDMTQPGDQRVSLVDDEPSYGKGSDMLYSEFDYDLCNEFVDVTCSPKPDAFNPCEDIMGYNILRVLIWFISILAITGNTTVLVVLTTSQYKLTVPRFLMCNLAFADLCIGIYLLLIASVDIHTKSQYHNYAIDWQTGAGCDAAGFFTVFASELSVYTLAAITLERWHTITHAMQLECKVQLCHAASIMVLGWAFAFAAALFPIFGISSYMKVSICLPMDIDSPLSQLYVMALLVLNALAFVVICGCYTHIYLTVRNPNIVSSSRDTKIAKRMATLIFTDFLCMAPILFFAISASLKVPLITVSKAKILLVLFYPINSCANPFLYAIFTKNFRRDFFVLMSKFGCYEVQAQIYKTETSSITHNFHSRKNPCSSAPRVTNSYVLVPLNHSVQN
Experiment: immunofluorescence, 293T cells transiently transduced with murine FSHR
Description: The use of 9H11 for staining FSHR in immunocytochemistry through immunofluorescence was validated.

B1: 9H11 monoclonal antibody (murine, original) (antibody, mouse IgG2a, kappa, V domains shown)
VH: QVNLKESGPGILQPSQTLNLTCSFSGFSLSTSGMGVGWIRQPSGKGLDWLAHIWWDDDKRYNPALKSRLTISKDASSNQVFLKIASVVTADTATYYCVQINYGNYRFDNWGHGTTLTVSS
VL: not shown
notes: Mouse hybridoma antibody; also called murine monoclonal antibody 9H11; 9H11 antibody
B1: binds.
